Experimental data taken from patent publication US20060057665A1, “Galectin-14 therapeutic molecule and uses thereof” (The University of Melbourne, priority 2001, published 2006).

Legend:
[1] = molecular target: T1, laminin from Engelbreth-Holm-Swarm murine sarcoma (Mus musculus, UniProt P02468+P02469+P19137); experiment: Solid-phase laminin binding assay; details: serial dilutions; detected with anti-GST HRP antibody, absorbance 450 nm
T1 construct: laminin from Engelbreth-Holm-Swarm murine sarcoma (Sigma); purchased Sigma; host or cells: Engelbreth-Holm-Swarm murine sarcoma (tissue-derived)
Description: FIG. 17 is an image of the saturation binding of GST-galectin-14 fusion protein to immobilised laminin. Laminin binding of GST-galectin-14 fusion protein was assayed using a solid-phase binding assay in a 96-well microtitre plate. Serial dilutions of GST-galectin-14 (▪) and GST (▴) were added to microtitre wells containing laminin. 0.3 M Lactose was added to GST-galectin-14 to inhibit binding (◯). The level of bound protein was monitored by the binding of rabbit anti-GST HRP antibody developed with TMB substrate and detected by a change in absorbance at 450 nm.
Laminin binding activity was measured according to the method of Mazurek et al. with some modification. Briefly, the wells of a 96-well microtitre plate were coated with laminin from Engelbreth-Holm-Swarm murine sarcoma (Sigma) at 1 μg/100 μl of carbonate coating buffer (15 mM Na2CO3, 35 mM NaHCO3, pH 9.6) per well overnight at 4° C. Non-specific binding sites were blocked with 200 μl of 0.5% Tween 20 in PBS for 1 h. Plates were washed 3 times in 0.05% Tween 20 PBS and incubated with 50 μl serial dilutions of GST-galectin-14 or GST alone, diluted in 0.5% Tween 20 PBS, for 1.5 h at 37° C. Control wells contained 0.3 M lactose. […] The reaction was terminated with 100 μl 2 M sulphuric acid and the colour change monitored using a dual wavelength mode plate reader (Bio-tek instruments) at 450 nm, ref 690 nm.

rabbit erythrocytes = experiment: Hemagglutination assay on trypsin-treated, glutaraldehyde fixed rabbit erythrocytes; assay type: cell-based; details: for stability of agglutination activity upon storage: even in the presence of reducing agents
Description: Trypsin-treated, glutaraldehyde fixed rabbit erythrocytes were prepared and tested in an agglutination assay according to the method of Nowak et al. (Nowak et al. (1976) supra). Agglutination assays were performed in 96-well V-shaped microtiter plates with serial 2-fold dilutions of samples in 25 μl of DES (0.15 M NaCl, 2 mM EDTA, 2 mM dithiothreitol), 50 μl of 0.5% (w/v) BSA in 0.15 M NaCl and 25 μl of a 4% suspension of rabbit erythrocytes. The plates were shaken vigorously for 30 s, and agglutination was read after the plates had stood at room temperature for 1 h. Agglutinated erythrocytes formed a “mat” on the bottom of the well. For assessment of the inhibitory effects of saccharides, lactose, galactose, and N-acetyl-glucosamine were serially diluted in 25 μl of 0.15 M NaCl prior to the addition of recombinant protein in DES, 25 μl of 1% (w/v) BSA in 0.15 M NaCl, and 4% erythrocytes in PBS. The minimum concentration of GST-galectin-14 that gave mat formation (0.28 μM) was used in the saccharide inhibition assay. For assessment of the effects of antibody on GST-galectin-14 hemagglutination, ascites and supernatants from monoclonal antibodies and polyclonal rabbit sera all raised to recombinant galectin-14 were serially diluted in 25 μl of 0.15 M NaCl prior to the addition of recombinant protein in DES, 25 μl of 1% (w/v) BSA in 0.15 M NaCl, and 4% erythrocytes in PBS. A different batch of GST-galectin-14, which produced mat formation at a minimum concentration of 0.059 μM, was used at 0.059 μM and 0.042 μM to measure both inhibition and potentiation of agglutination by antibodies.

[2] = SDS-PAGE and Western blot analysis of recombinant galectin-14 after storage; assay type: physicochemical; details: storage at high concentrations; reducing conditions
Description: FIG. 10 is an image of SDS-PAGE and Western blot analysis of recombinant galectin-14 and endogenous proteins. […] The arrow points to the position of monomeric galectin-14. All samples were run under reducing conditions. […] Membranes were incubated with mAb supernatant for 2 h at room temperature, followed by incubation with secondary antibody, horseradish peroxidase-conjugated rabbit anti-mouse Ig (Dako, Carpinteria, Calif.), for at least 1 h at room temperature. Signals were detected using 1.5 mM 3,3′-diaminobenzidine tetrahydrochloride (DAB; Sigma), or ECL (Amersham Pharmacia Biotech).

B1: GST-galectin-14: Recombinant galectin-14 expressed in E. coli BL-21 as a GST fusion protein (pGEX-6P-2) (protein)
chain: MQSESGHEGDEELAFRDTQPPYINLPIPFTGRIEGGLQDGHKVTVMGRVLSTDENRFQVDFQMGISDTNNVAFHFNPRFEGSGYVVCNTMQLGNWGPEEKKMQMPFQKGSLFEICFKVDSSSFKVTVNGSIFLDYAHRLPFEQVNAISIGGCVHVSYISFQI
modifications: left off: a dimerising Fc or GST
binding to immobilised laminin [1]: bound to laminin in a dose dependent manner | maximum concentration which did not induce agglutination (rabbit erythrocytes; batch used in the antibody potentiation assay): 0.042 µM | minimum concentration that gave mat formation (agglutination) (rabbit erythrocytes; batch used in the saccharide inhibition assay): 0.28 µM | minimum concentration that produced mat formation (agglutination) (rabbit erythrocytes; different batch, used in the antibody assays): 0.059 µM | stability of agglutination activity upon storage (rabbit erythrocytes): did not deteriorate upon storage

B2: galectin-14: Ovine proto-type galectin, amino acid sequence <400>2; recombinant form cleaved from GST fusion, with 5 additional N-terminal amino acids (protein)
chain: MQSESGHEGDEELAFRDTQPPYINLPIPFTGRIEGGLQDGHKVTVMGRVLSTDENRFQVDFQMGISDTNNVAFHFNPRFEGSGYVVCNTMQLGNWGPEEKKMQMPFQKGSLFEICFKVDSSSFKVTVNGSIFLDYAHRLPFEQVNAISIGGCVHVSYISFQI
self-aggregation after storage [2]: often self-aggregates into oligomers | minimum concentration exhibiting agglutination activity on rabbit erythrocytes (rabbit erythrocytes; fresh cleaved and purified recombinant protein): 0.16 µM | stability of agglutination activity upon storage (rabbit erythrocytes): rapidly lost upon storage
